{"source": "the nanobody polyreactivity screen of Harvey et al. (2022)"}
{"assay": "yeast display, Sf9 membrane polyspecificity reagent, FACS + sequencing; frameworks hold sequencing errors", "outline": "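Nanobodies from a synthetic yeast display library (Saccharomyces cerevisiae BJ5465), induced 36–48 hours with galactose, were stained 1 hour at 4 °C with 10% biotinylated, detergent-solubilized Sf9 membrane reagent, enriched on streptavidin microbeads, then FACS-sorted. Anti-HA (expression) and streptavidin (reagent binding) fluorescence set low and high (top ~1%) gates. Polyreactivity labels come from the gate of origin. Genes were colony-PCR amplified, MiSeq 2 × 250 sequenced and filtered by CDR length.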"}
{"sequence": "QVQLVESGGGLVQAGGSLRLSCADSGRIFFDYAMGWYRQAPGKERELVAAISYRGGDTYYADSVKGRFTISRDNAKNTVYLQMNSLIPEDTAVYYCAATGGYYEYWGQGTQVTVSS", "polyreactivity (PSR sort gate)": "low polyreactivity"}
{"sequence": "QVQLVESGGGLVQAGGSLRLSCADSGRIFGINAKGWYRQAPGKARELVASISRRVGRTSYADSVKGRFTISRDNAKNTVYLQMNSLKPEDTAGYFCAADVWNDGSWTDYDYWGQGTQVTVSS", "polyreactivity (PSR sort gate)": "high polyreactivity"}
{"sequence": "QVQLVESGGGLVQAGGSLRLSCADSGRIFNPYAMGWYRQAPGKERELVAGISWGGGSTRYADSVKGRFTISRDNAKNTVYLQMNSLKPVDTAVYYCNSGSYYKRFDYWGKGTQVTVSS", "polyreactivity (PSR sort gate)": "high polyreactivity"}
{"sequence": "QVQLVESGGGLVQAGGSLRLSCADSGRIFSSNAIGWYRQAPGQERELVASISSTGSTKYADSVKGRFTISRDNAKNTVYVQMNSLKPEDTAVYYCAAGSYLWHFTFDYWGQGTQVTVSS", "polyreactivity (PSR sort gate)": "low polyreactivity"}
{"sequence": "QVQLVESGGGLVQAGGSLRLSCADSGRIFSWNAMGRYRQAPRKERELVAAISSSGARTYYADSVKGRFTISRDNAKNTVYLQMNSLKPEDTAVYYCIAARSSQHYYSYNYWGQGTQVTVSS", "polyreactivity (PSR sort gate)": "high polyreactivity"}
{"sequence": "QVQLVESGGGLVQAGGSLRLSCADSGRIICWYAMGWYRQAPGKERELVAAISTGSRTYYADSVKGRFTISRDNAKTTVYLQMNSLKPEDTAVYYCAASLYSGYVSWGQGTQVTVSS", "polyreactivity (PSR sort gate)": "low polyreactivity"}
{"sequence": "QVQLVESGGGLVQAGGSLRLSCADSGRILPFYAMGWYRQAPGKERELVADISLSGGDTYYADSVKGRFTISRDNAKNTVYLQMNSLKPEDTAVYYCAKDRYQWLWSPEYDYWGQGTQVTVSS", "polyreactivity (PSR sort gate)": "low polyreactivity"}
{"sequence": "QVQLVESGGGLVQAGGSLRLSCADSGRTFGRNVMGWYRQAPGKERELVASITRSGGSTYYADSVKGRFTISRDTAKNTVYLEMNSLKPEDTAVYYCAKCYYLWCSYWGPSQYDWGQGSQVTVSS", "polyreactivity (PSR sort gate)": "high polyreactivity"}
{"sequence": "QVQLVESGGGLVQAGGSLRLSCADSGRTFRFNTRGWYRQAPGKEWVLVASISSSGGRTYYADSVKGRFTISRDNAKNTLYLQMHSLKPEDTAVYYCAAAAGWGARTSTYCGYDYWGQGTQVTVST", "polyreactivity (PSR sort gate)": "high polyreactivity"}
{"sequence": "QVQLVESGGGLVQAGGSLRLSCADSGRTFSTYAMGWYRQAPGKERELVAAISSGGGRTYYADSVKGRFTISRDNAKNTVYLQINSLKPEDTAVYYCAADRYFRSRRSYEYWGQGTQVTVSS", "polyreactivity (PSR sort gate)": "low polyreactivity"}
{"sequence": "QVQLVESGGGLVQAGGSLRLSCADSGRTNPHYAMGWYRQAPGKESEFVAAISSRGGSTYDADSVKGRFTISRDNAKNTVYVQMNSLKPEDTAVYYCAAQYDGLPRVSYGLGEFGYWGQGSQVTVSS", "polyreactivity (PSR sort gate)": "low polyreactivity"}
{"sequence": "QVQLVESGGGLVQAGGSLRLSCADSGSIFAYAMGCSRQAPRKESELVAGISSSGGRTYYADSVKGRFSISRDNAKNTVYLQMNSLKPEDTAVYYCAAKRWGLYKGYYWGQGTQVTVSS", "polyreactivity (PSR sort gate)": "high polyreactivity"}
{"sequence": "QVQLVESGGGLVQAGGSLRLSCADSGSIFDFNTMGWYRQAPGKERELVAAISQRTGRTYYADSVKGRFTISRDNANNTVYLQMNSLKPEDTADYYCAVVWYDKGRQTRYNSWGQGTQVTVSS", "polyreactivity (PSR sort gate)": "high polyreactivity"}
{"sequence": "QVQLVESGGGLVQAGGSLRLSCADSGSIFFFYAMGWYRQAPGKERELVAAISKSPSSTYYADSVKGRFTISRDNAKNTVYLQMNSLKPEDTAVYYCNTGYSGIQYYYWGQGAQVTVSS", "polyreactivity (PSR sort gate)": "low polyreactivity"}
{"sequence": "QVQLVESGGGLVQAGGSLRLSCADSGSILIHYTMGWYRQEPGKERELVAAISSTGGSTYYADSVKGRFTISRDNAKNTVYLQMNSLKPEDTAVYYCATGPHQPPYSYLDYDYWGQGTQVTVSS", "polyreactivity (PSR sort gate)": "low polyreactivity"}
{"sequence": "QVQLVESGGGLVQAGGSLRLSCADSGSISDYYAMGWYRQAPGKERELVAAISWDGGSTYYADSVKGRFTISRDNAKNTVYLQMNSLKPEDTAVYYCAAVAWEGSGSEMYSWGQGTQVTVSS", "polyreactivity (PSR sort gate)": "low polyreactivity"}
{"sequence": "QVQLVESGGGLVQAGGSLRLSCADSGSTFRPYAMGWNRQAPGKERELVAAISSGDSTYYADSVKGRFTISRDNAKNTVYLQMNSLKPEDTAVYYCAKRKYWHRGGGYWGQGTQVTVSS", "polyreactivity (PSR sort gate)": "high polyreactivity"}
{"sequence": "QVQLVESGGGLVQAGGSLRLSCADSGSTFWFYERGWYSQAPGKVRELVAVISNSGSTYYADSVKGLFTISRDNAKNTVYLQMNSLKPEDTAVYYCNKDGGGDSYWYDYWGQGTQVTVSS", "polyreactivity (PSR sort gate)": "low polyreactivity"}
{"sequence": "QVQLVESGGGLVQAGGSLRLSCADSGSTFWLYAMGWYRQAPGKERELVASISSRGRSTYYADSVKGRFTISRDNAKNTVYLQMNSLKPEDTAVYYCAAKDIRYDDDYWGQGTQVTVSS", "polyreactivity (PSR sort gate)": "low polyreactivity"}
{"sequence": "QVQLVESGGGLVQAGGSLRLSCADSGSTFYRYGMASSRHAPGKERELVAAISWRGGITYYADSVKGRFTISRENAMHTVYLQRNSLKPQDSAVYYCAADGPYTGDGALDYWGQGTQVTVSS", "polyreactivity (PSR sort gate)": "high polyreactivity"}
{"sequence": "QVQLVESGGGLVQAGGSLRLSCADSGSTFYVYSMGWYRQAPGKERELVAAITGSTGSTYYADSVKGRFTISRDNAKNTVYLQMNSLKPVDTAVYYCAADFYGVPIIYDYWGQGTQVTLSS", "polyreactivity (PSR sort gate)": "low polyreactivity"}
{"sequence": "QVQLVESGGGLVQAGGSLRLSCADSGSTIPKYAMGWSRQAPGKERELVAVITSGGSTYYADSVKGRFTISRDNAKNTVYLQMISLKPEDTAVYYCAARKYRRFDYWGQGTQVTVSS", "polyreactivity (PSR sort gate)": "high polyreactivity"}
{"sequence": "QVQLVESGGGLVQAGGSLRLSCADSGTTFVKYAMGWYRQAPGKERELVAAISSRGGRTYYADSVKGRFTISRDNAKNTVYLQMNSLKPEDTEVYYCNKGTRLDGEYEYWGHGTQVTVSS", "polyreactivity (PSR sort gate)": "high polyreactivity"}
{"sequence": "QVQLVESGGGLVQAGGSLRLSCADSGYIFDAYAMGWYRQAPGKERELVAAIDIGGSTYYADSVKGRFTISRDNAKNTVYLQMNSLKPEDTAVYYCAEWFYFDQWDYAREYWGQGTQVTVSS", "polyreactivity (PSR sort gate)": "low polyreactivity"}
{"sequence": "QVQLVESGGGLVQAGGSLRLSCAGSGNIFSTYAMGWYRPAPGKVRELVASISENGGSTYYADSVKGRFTISRDNAKNTVYLQMNSLKPEDTAVYYCNADAYVYFDDGDYWGQGTQVTVSS", "polyreactivity (PSR sort gate)": "low polyreactivity"}
{"sequence": "QVQLVESGGGLVQAGGSLRLSCAGSGRIFARNVMGWYGQAPGKVRELVAAISRSGGSTYYADSVKGRFTISRDNAKNTVYLQMNSLKPEDTAFYYCNAYYPIRSSPYGYYYWGQGTQVTVSS", "polyreactivity (PSR sort gate)": "high polyreactivity"}
{"sequence": "QVQLVESGGGLVQAGGSLRLSCAGSGRIFYVYAMGWYRQAPGKERELVAAISRGGSTNYADSVKGRFTISRDNAKNTVYLQMNSLKPEDTAVYYCAASSLPHYSFRHSYLYEYWGQGTQVTVSS", "polyreactivity (PSR sort gate)": "low polyreactivity"}
{"sequence": "QVQLVESGGGLVQAGGSLRLSCAGSGSTFDSYAMGWYRQAPGKERELVAAITRSDASTYYADSVKGRFTISRDNAKNTVYLQMNSLKPEDTAVYYCAADTSLVYYGGDWEYYYWGQGTQVTVSS", "polyreactivity (PSR sort gate)": "low polyreactivity"}
{"sequence": "QVQLVESGGGLVQAGGSLRLSCAGSGSTFRSNAMGWYRQAPGKERELVAAISQRGGSTYYADSVKGRFTISRDNAKNTVYLQMNSLKPEDTAVYYCAAQYFRRSGYWGQGTQVTVSS", "polyreactivity (PSR sort gate)": "high polyreactivity"}
{"sequence": "QVQLVESGGGLVQAGGSLRLSCAGSGSTFVVYSIGWYRQAPGKERELVAAITRGGGSTYYAYSVKGRFTISRDNAKNTVYLLMNSLKPEDTAVYYCAAYQLPGLRTSFEYWGQGTQVTVSS", "polyreactivity (PSR sort gate)": "low polyreactivity"}
{"sequence": "QVQLVESGGGLVQAGGSLRLSCAGSGSTVSANALGSYRQAPGKDRELVAAISRRGGSTNYADSVKGRFTISRDNAKNTVYLQMNSLKPEDTAVYYCAGLYVPRSPFSYDYWGQGTQVTVSS", "polyreactivity (PSR sort gate)": "high polyreactivity"}
{"sequence": "QVQLVESGGGLVQAGGSLRLSCAGSGYILFAYAMGWSRQAPGKERELVATITTSGGITYYADSVKGRFTISRDNAKNTVYLQMNSLKPEDTEVYYWAAAEGGGLVTYDYWGQGSQVTVSS", "polyreactivity (PSR sort gate)": "low polyreactivity"}
{"sequence": "QVQLVESGGGLVQAGGSLRLSCAGYGRIFEDNSMVSYRQPPGKERELVAAISSGDSTKYADSVKGRFTISRDNAKTTVYLQIKSLKQEDTAVYYCAAERNHGLVGSESVGRNVYWGHGTQVTVSS", "polyreactivity (PSR sort gate)": "low polyreactivity"}
{"sequence": "QVQLVESGGGLVQAGGSLRLSCAHSGFTFTRNAMGWYRQSPGKETELVATISGSGGGTYYADSVKGRFTISRDNAKNTVYLQMNRLKPEDTAVYYCNARRLYSWQGTARYDFWGQGTQVTVSS", "polyreactivity (PSR sort gate)": "low polyreactivity"}
{"sequence": "QVQLVESGGGLVQAGGSLRLSCAPSGATFRRNAMGWYRQAPGKERELVAAITWRGGSTSYADSVKGRFTISRDNAKNTVYLQMNSLKREDTAVYYCAAVKGHSQVLSYGYWGQGTQVTVSS", "polyreactivity (PSR sort gate)": "low polyreactivity"}
{"sequence": "QVQLVESGGGLVQAGGSLRLSCAPSGFIFAKYTMGWSRHAPGKERELVAAISANGGNTYYADSVKGRFTITRDNAKNTVYLQMNSLNPEDTAVYYCAALYKYSSYFDYWGQGTLVTVSS", "polyreactivity (PSR sort gate)": "high polyreactivity"}
{"sequence": "QVQLVESGGGLVQAGGSLRLSCAPSGFIFARNAMGWYRQAPGKERELVAVISTRGRTYYADSVKGRFTISRDNAKNTVYLQMKRLKPEDTAVYYCNADKVIGYDYWGQGTQVTVSS", "polyreactivity (PSR sort gate)": "high polyreactivity"}
{"sequence": "QVQLVESGGGLVQAGGSLRLSCAPSGFIFSRYAMGWYRQAPGKERELVATITSSGGSTYYADSVKGRFTISRDNAKNTVYLQMNSLKPEDTAVYYCNAKISIRWHYGYYYWGQGTQVTVSS", "polyreactivity (PSR sort gate)": "high polyreactivity"}
{"sequence": "QVQLVESGGGLVQAGGSLRLSCAPSGFTFGIYAMGWYRQAPGKERELLADINVSDGSTYYADSVKRRFTISRDNAKNTVYLQMNSLKPEDTAVYYSAAYVYDTIYTSYREYDYWGQGTQVTVST", "polyreactivity (PSR sort gate)": "low polyreactivity"}
{"sequence": "QVQLVESGGGLVQAGGSLRLSCAPSGFTFRYNTMAWYRQAPGKERELVAAISSSGSSTYYADSVKGRFTISRDNAKNTVYLQMNSLKPVDTAVYYCNAVHRRTRYGYWGQGTQVTVSS", "polyreactivity (PSR sort gate)": "high polyreactivity"}
{"sequence": "QVQLVESGGGLVQAGGSLRLSCAPSGGTFALYAMGWYRQAPGKERELVASISFNGGSTYYADSVKGRFTISRDNAKNTVYLQMNSLKPEDTAVYYCNTGYQWGVYESQTAVEDYWGQGTQVTVSS", "polyreactivity (PSR sort gate)": "low polyreactivity"}
{"sequence": "QVQLVESGGGLVQAGGSLRLSCAPSGGTFIYYAMGWYRQAPGKERELVAAISSGGSTYYADSVKGRFTISRDNAKNTVYLQMNSLKPEDTAVYYCAKRRAVQIVDLEYWRQGTQVTVSS", "polyreactivity (PSR sort gate)": "low polyreactivity"}
{"sequence": "QVQLVESGGGLVQAGGSLRLSCAPSGGTFVTYAMGWYIQAPGKERELVAAITTGGSTYYADSVKGRFTISRDNAKNTVYLQMNSLKPEDTAVYYCAAVYTGSGKRYYKGYYWGQGTQVTVSS", "polyreactivity (PSR sort gate)": "low polyreactivity"}
